Results taken from PMC4938498, “Molecular, Biochemical, and Dietary Regulation Features of α-Amylase in a Carnivorous Crustacean, the Spiny Lobster Panulirus argus” (PLoS ONE, 2016).

Substrate: O=[N+]([O-])c1ccc(O[C@H]2O[C@H](CO)[C@@H](O[C@H]3O[C@H](CO)[C@@H](O[C@H]4O[C@H](CO)[C@@H](O)[C@H](O)[C@H]4O)[C@H](O)[C@H]3O)[C@H](O)[C@H]2O)c(Cl)c1
Test: purified protein
Type: biochemical, Panulirus argus
Details: 50 mM MES pH 5.5, 0.3 M NaCl, 25 mM CaCl2, 37°C

B1: lobster α-amylase (PaAmy) (Panulirus argus) (protein)
chain: QWDPHVTNGQAIVHLFEWRWSDIASECENFLGPRGYGGVQVSPPNENVVVYQDEKSRPWWERYQPVSYKIATRSGDEASFKDMVNRCNNAGVRIYVDAVINHMSGWWPTGTAATGGSTFDAGAESYPAVPYSAFDFNDANCHTASGTIEDYGDAEQVRNCKLVGLNDLNQGTDYVRGKIRDYLNTLTSWGVAGFRVDATKHMWPGDLKAIFDSLDDLSPHYFDAGSRPFIFQEVIDLGGEPITSSQYVGNGRVTEFKYGKSLGESFNGNNPLKWFSTFGESWGMVDRGNAVVFIDNHDNQRTGGDMILTFRSSKWYKMANAYMLAWPYGFPRVMSSFYWDQWWENGHDKNDWTGPPHDGSYNIVGPTFNPDDSCGNGWICEHRWRQIYNMVQFRNVAHGTDMNDWWDNGSNQISFCRGDRGFIAINNDPWDMKESRQTCLSSGTYCDVISGSKIQGSCTGKTVTVNADGFAYIEILNSEEDGVLAIHRDSKL
notes: native, purified from digestive gland pool; mature enzyme after 21-residue signal peptide (cleavage A21/Q22 predicted); precursor 513 residues; N-glycosylation N429 predicted
  Km: 360 ± 52 µM
  kcat: 28.42 ± 1.203 s⁻¹
